Data published in the DeepSol protein solubility set.

Assay: soluble on expression in E. coli; label from the status in PepcDB or PDB records

Sequence | soluble on expression in E. coli
MLPEKRLLTPDDMKLWEESPTRAHFTKFIIDLAESVKGHENSQYKEPISESINSMMNLLSQIKDITQKHPVIKDADSSRFGKVEFRDFYDEVSRNSRKILRSEFPSLTDEQLEQLSIYLDESWGNKRRIDYGSGHELNFMCLLYGLYSYGIFNLSNDSTNLVLKVFIEYLKIMRILETKYWLEPAGSHGVWGLDDYHFLPFLFGAFQLTTHKHLKPISIHNNELVEMFAHRYLYFGCIAFINKVKSSASLRWHSPMLDDISGVKTWSKVAEGMIKMYKAEVLSKLPIMQHFYFSEFLPCPDGVSPPRGHIHDGTDKDDECNFEGHVHTTWGDCCGIKLPSAIAATEMNKKHHKPIPFD | soluble
MPRFMRTQTKLRTIIRSNLMLNSSSMEISRSLTSWQKGARSIIHRALQYLEGNLTVIEHFPDQTQTTHEQFGQDKPDAIHAVIEIKHPDFYSRVLKGGSIAAAEAYMEGWWESPNLTALMQLMAANLGTLDKLESQSSPVTQWLNRFTHWLKRNTIDQAKDNIHQHYDLGNELYQLFLDEEMLYSSALFTQPELSLEQAQQAKMQRLCEQLQLKPTDHVLEIGTGWGAMAIYMAQHYGCKVTTTTISEEQYAYAQQKITALGLNNQITLLKQDYRLLSGQYDKLVSIEMIEAVGKAYLPTFLSQCYALLKPRGKMAIQAITIADQRYESYSNNVDFIQKYIFPGGFLPSISVLTELATKRTGLVLRNLHDIGIDYALTLQHWRDRFEQQLPKVRDLGYDERFIRMWRYYFCYCEGGFLARSISTVHMTFERD | not soluble
MGSDKIHHHHHHMAQVDLLNVKGEKVGTLEISDFVFNIDPNYDVMWRYVDMQLSNRRAGTASTKTRGEVSGGGRKPWPQKHTGRARHGSIRSPIWRHGGVVHGPKPRDWSKKLNKKMKKLALRSALSVKYRENKLLVLDDLKLERPKTKSLKEILQNLQLSDKKTLIVLPWKEEGYMNVKLSGRNLPDVKVIIADNPNNSKNGEKAVRIDGLNVFDMLKYDYLVLTRDMVSKIEEVLGNEAGKALTA | not soluble
MGSDKIHHHHHHMSDPTWDGSPQYRNELLRFMPADDLALLAPHMQRCALPVRMMLVTPNIPIEAVYFIEQGIGSVVASTASGHDAEIGFIGFEGMTGSALVMGDDRAAHACFVQLEGEAIRIDAAPFNAALAASPTLRLFLLHFVNTLHTQTGCTALVNARLKLEERLARWLLMCDDRVPGESLAMTHEFLSIMLGVRRPGVTVALQLLEGRALIRSRRGEIVIRDRAGLLELANGGYGQAEAEYARLIGEIMPG | not soluble
MTIHIYNTLTRQKEEFTPLEENKVKMYVCGPTVYNYIHIGNARPPMVFDTVRRYLEYKGYDVQYVSNFTDVDDKLIKAANELGEDVPTIADRFVEAYFEDVTALGCKHATVHPRVTENMDIIIEFIQELVNKGYAYESEGDVYFRTKEFEGYGKLSHQPIADLRHGARIEVGEKKQDPLDFALWKAAKEGEIFWESPWGQGRPGWHIECSAMARKYLGDTIDIHAGGQDLAFPHHENEIAQSEALTGKTFARYWMHNGYININNEKMSKSLGNFILVHDIIKQYDPQLIRFFMLSVHYRHPINFSEELLQSTNNGLERIKTAYGNLKHRMESSTDLTDHNEKWLADLEKFQTAFEEAMNDDFNTANAITELYNVANHANQYLLEEHTSTVVIEAYVKQLETLFDILGLELAQEELLDEEIEALIQKRIEARKNRDFALSDQIRDDLKDRNIILEDTAQGTRWKRG | soluble
MTNKEKPIKHLVIDTCAIIANRNLHALADHYYAPPQILDELRSSAARKLWNTLPFEVTLREPTQTALRAVIDASKTTGDFQSLSMVDIKMIALTYDLHRQYVAENDVAETTEDDEKKNIEDLSAKVEQVTVGENTEDTKEEEIEENEESEDSAVSEGSESSESSESFDEDGWITQDNIEETLKKLGAFEIEENMLVGCLTTDFALQNVLLAMNLSLVSLSGYRIRKLKSFVLRCRTCFSTTSVMTKEFCPACGHKTLHKCAVSVDEDGNQQLHINWNRMANRRGLVYTLANPKGGKHATNERLFEDQPMPHMRMAKIHMDPLADGPFSVHDVTSRSAMLGVRTINNRAKQNRNPNESKRGGRRK | not soluble
MKIYVDADACPVKDVIIFEATKAEIPVTLVTSFSHYSNAEQPKGVETIYVDSGADAADYRIMQLAQKEDLIVTQDYGLASLALAKGCIVLHHKGYKYTNENIDQLLQTRYLSAMVRKSGKRTKGPKPFTAEDKEKFRALFKSMIPLLEHHHHHH | soluble
GPLGSLYAIVLYDFKAEKADELTTYVGENLFICAHHNCEWFIAKPIGRLGGPGLVPVGFVSIIDIATGYATGNDVIEDIKSVNLPTVQEWKSNIARYKASNISLGSVE | soluble
MNFQKVCSLDELWEGDMTEVEVAGHVIVLVRPEGGEPRAFQGICPHQDIPLAEGKFDGRVLMCRAHQWTFDANTGKGINPGGARLAEYALKVEGDDILVAVEGVEPLFANC | soluble
MGSSHHHHHHSSGLVPRGSMAQGLIEVERKFLPGPGTEERLQELGGTLEYRVTFRDTYYDTPELSLMQADHWLRRREDSGWELKCPGAAGVLGPHTEYKELTAEPTIVAQLCKVLRADGLGAGDVAAVLGPLGLQEVASFVTKRSAWKLVLLGADEEEPQLRVDLDTADFGYAVGEVEALVHEEAEVPTALEKIHRLSSMLGVPAQETAPAKLIVYLQRFRPQDYQRLLEVNSS | soluble
